Data reported in doi:10.1101/2020.12.17.423260.

Biological target: 3Dpol-WT (RNA-dependent RNA polymerase) (Foot-and-mouth disease virus, UniProt P03305 1863-2332)
Experiment: fluorescence polarisation anisotropy

Chain of 3Dpol-WT (RNA-dependent RNA polymerase) (P03305 1863-2332): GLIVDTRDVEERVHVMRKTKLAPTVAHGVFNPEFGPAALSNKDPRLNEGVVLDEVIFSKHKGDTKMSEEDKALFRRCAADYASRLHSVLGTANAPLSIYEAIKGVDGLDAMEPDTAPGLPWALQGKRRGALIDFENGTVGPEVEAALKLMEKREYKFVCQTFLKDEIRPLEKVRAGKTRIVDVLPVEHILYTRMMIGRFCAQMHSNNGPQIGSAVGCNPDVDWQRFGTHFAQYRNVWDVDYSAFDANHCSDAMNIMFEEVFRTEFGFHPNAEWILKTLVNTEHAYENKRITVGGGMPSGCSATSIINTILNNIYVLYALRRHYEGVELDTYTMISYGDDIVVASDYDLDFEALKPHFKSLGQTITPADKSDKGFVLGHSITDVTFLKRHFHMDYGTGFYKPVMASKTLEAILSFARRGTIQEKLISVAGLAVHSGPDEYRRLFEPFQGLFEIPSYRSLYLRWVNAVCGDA

B1: 13mer poly-A RNA (ssRNA)
RNA: AAAAAAAAAAAAA
Kd: 5.83 ± 1.3 µM
